# According to PMC7387808 (Cellular and Molecular Immunology, 2020):
# T1: TOM70 (full-length, recombinant, analyte of the BLI) (human, UniProt O94826 1-608)
# T1 construct: also called Mitochondrial import receptor subunit TOM70
# T1 sequence (looked up): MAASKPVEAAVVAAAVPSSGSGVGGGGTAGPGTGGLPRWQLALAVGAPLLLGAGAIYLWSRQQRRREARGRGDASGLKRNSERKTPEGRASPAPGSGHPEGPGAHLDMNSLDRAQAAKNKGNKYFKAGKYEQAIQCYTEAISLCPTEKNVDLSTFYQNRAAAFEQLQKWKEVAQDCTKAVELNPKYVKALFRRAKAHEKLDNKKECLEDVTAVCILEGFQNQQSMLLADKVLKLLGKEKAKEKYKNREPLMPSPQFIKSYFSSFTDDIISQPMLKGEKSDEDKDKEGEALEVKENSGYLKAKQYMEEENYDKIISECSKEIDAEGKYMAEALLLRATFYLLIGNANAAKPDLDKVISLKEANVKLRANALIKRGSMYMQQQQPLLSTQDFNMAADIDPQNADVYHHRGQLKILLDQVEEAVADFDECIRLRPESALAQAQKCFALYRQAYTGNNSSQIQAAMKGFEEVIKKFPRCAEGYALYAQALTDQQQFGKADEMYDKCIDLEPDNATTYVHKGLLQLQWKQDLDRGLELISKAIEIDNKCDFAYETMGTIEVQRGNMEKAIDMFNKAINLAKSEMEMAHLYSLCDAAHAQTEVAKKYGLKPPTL
# Target: T1, TOM70 (full-length, recombinant, …)
# Experiment: BLI; […]; kinetics ([…]) buffer 1x PBS pH 7.4, 0.1% BSA, 0.02% Tween-20; association 5 min, dissociation 5 min; […]; 1:1 global fit
# Settings: both partners purified
binder,measurement,value
"SARS-CoV Orf9b, biotinylated (C-terminal Avi-His6) (natural protein, also called Biotinylated Orf9b) MDPNQTNVVPPALHLVDPQIQLTITRMEDAMGQGQNSADPKVYPIILRLGSQLSLSMARRNLDSLEARAFQSTPIVVQMTKLATTEELPDEFVVVTAK",Kd,41.6 ± 1.01 nM
same,koff,0.00244 s⁻¹
same,kon,58600 M⁻¹ s⁻¹
